This data set addresses T1, MdHB7L-HIS (UniProt D9ZJ22 1-236).
T1 sequence: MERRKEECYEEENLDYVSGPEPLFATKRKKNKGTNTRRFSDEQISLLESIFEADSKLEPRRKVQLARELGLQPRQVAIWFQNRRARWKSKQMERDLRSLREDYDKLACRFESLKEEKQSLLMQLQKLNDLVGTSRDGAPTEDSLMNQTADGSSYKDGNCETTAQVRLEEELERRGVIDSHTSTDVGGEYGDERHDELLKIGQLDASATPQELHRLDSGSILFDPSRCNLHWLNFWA
Put plainly: EMSA; Beyotime Chemiluminescent EMSA Kit per manufacturer; buffer, salt, pH and temperature not given. As to conditions: protein: recombinant; tags: His (pET28a; BamHI/SalI site primers, no stop codon in reverse primer); chain copies: 2; label: biotin; blunt.

B1: pMdERDL6-7-5-HB (dsDNA)
DNA 1: ATGCAGAATCATTTATCCTTAATTAATCATA
DNA 2: TATGATTAATTAAGGATAAATGATTCTGCAT
B1: the binding result is given as “binds”.

B2: pMdRD26-3-HB (dsDNA)
DNA 1: ATAGAAATAAATAATTGACGAGATAAATAG
DNA 2: CTATTTATCTCGTCAATTATTTATTTCTAT
Take B2: the binding result is “binds”.

B3: pMdPRX53-2-HB (dsDNA)
DNA 1: AATACGCCTCTAATTATTAGGTGCTTTTTG
DNA 2: CAAAAAGCACCTAATAATTAGAGGCGTATT
As for B3, the binding result is reported as “binds”.

B4: pMdRD26-4-HB (dsDNA)
DNA 1: ATAAATATAATTACCTGTGAGTTGATTATA
DNA 2: TATAATCAACTCACAGGTAATTATATTTAT
On to B4, for which the binding result was “no binding”.

B5: pMdERDL6-7-1-HB (dsDNA)
DNA 1: GCATTTTATAATTGTTTATTATTTTTAATTAGAAAAAATC
DNA 2: GATTTTTTCTAATTAAAAATAATAAACAATTATAAAATGC
Take B5: the binding result is given as “binds”.

B6: pMdERDL6-1-1-HB (dsDNA)
DNA 1: TTAGGATAGTAATTGGTAACTCTCGACTCC
DNA 2: GGAGTCGAGAGTTACCAATTACTATCCTAA
B6: the binding result is given as “binds”.

B7: pMdCBF1-HB-P3 (dsDNA)
DNA 1: TAGCAACTAATTAAGTCTTCAATAATTTCTAAAAGCA
DNA 2: TGCTTTTAGAAATTATTGAAGACTTAATTAGTTGCTA
For the molecule B7, the binding result is reported as “binds”.

B8: pMdPAP2-2-HB (dsDNA)
DNA 1: GCACCAAGTCCAATTATTGAGCAATTAATG
DNA 2: CATTAATTGCTCAATAATTGGACTTGGTGC
For B8, the binding result was “binds”.

B9: pMdCBF1-HB-P1 (dsDNA)
DNA 1: AAAGCATAGAAATAATTCCAAAACTATTTT
DNA 2: AAAATAGTTTTGGAATTATTTCTATGCTTT
Consider B9, for which the binding result is listed as “binds”.

B10: pMdPRX52-4-HB (dsDNA)
DNA 1: CTTGTCCGTAAATGATTGACATTGGTTTAC
DNA 2: GTAAACCAATGTCAATCATTTACGGACAAG
B10: the binding result is listed as “binds”.

B11: pMdERDL6-7-4-HB (dsDNA)
DNA 1: CTTAAAATTTCTTAATTATCAGTTAACACC
DNA 2: GGTGTTAACTGATAATTAAGAAATTTTAAG
With B11, the binding result is on record as “binds”.

B12: pMdCBF1-HB-P2 (dsDNA)
DNA 1: CTATTATTATTAATTACTTTTTTCACATAA
DNA 2: TTATGTGAAAAAAGTAATTAATAATAATAG
Turning to B12, the binding result is on record as “binds”.

B13: pMdERD5-2-HB (dsDNA)
DNA 1: TCTTTTTAGACCCTAATTATAGGGAAAGGG
DNA 2: CCCTTTCCCTATAATTAGGGTCTAAAAAGA
Consider B13, for which the binding result is “binds”.

B14: pMdPRX52-3-HB (dsDNA)
DNA 1: CAAATGTAATTAGCATTAATCCCAACTAACTATAAAAATGATTATCCTTG
DNA 2: CAAGGATAATCATTTTTATAGTTAGTTGGGATTAATGCTAATTACATTTG
For the molecule B14, the binding result is “binds”.

B15: pMdCBF3-HB-P2 (dsDNA)
DNA 1: CACTGTCGATTTAAATCATTCATACAGAAA
DNA 2: TTTCTGTATGAATGATTTAAATCGACAGTG
Take B15: the binding result is listed as “binds”.

B16: pMdERDL6-7-2-HB (dsDNA)
DNA 1: CAATATAATTAATTAAAAATTTTAAACTTTTCAACTAATTATGTTAG
DNA 2: CTAACATAATTAGTTGAAAAGTTTAAAATTTTTAATTAATTATATTG
As for B16, the binding result is reported as “binds”.

B17: pMdPRX53-3-HB (dsDNA)
DNA 1: TAAGTCTTTGTGTAATTAACAAAACAACGA
DNA 2: TCGTTGTTTTGTTAATTACACAAAGACTTA
B17: the binding result is “no binding”.

B18: pMdERD5-3-HB (dsDNA)
DNA 1: ATTGTTTGTATTTAATTGTAAATAAAAATA
DNA 2: TATTTTTATTTACAATTAAATACAAACAAT
For the molecule B18, the binding result is recorded as “binds”.

B19: pMdPRX52-1-HB (dsDNA)
DNA 1: GTTAAACCAATTTAATTAATAAGATCTTAT
DNA 2: ATAAGATCTTATTAATTAAATTGGTTTAAC
Take B19: the binding result is given as “binds”.

B20: pMdRD26-1-HB (dsDNA)
DNA 1: ATGCGACCATTAATTAAACTTACAAAATGT
DNA 2: ACATTTTGTAAGTTTAATTAATGGTCGCAT
B20: the binding result is “binds”.

B21: pMdRD26-2-HB (dsDNA)
DNA 1: TCATTAAAGAGATAATTATGAAATAAAATA
DNA 2: TATTTTATTTCATAATTATCTCTTTAATGA
Consider B21, for which the binding result is “binds”.

B22: pMdERD5-4-HB (dsDNA)
DNA 1: TTAAGACTAGCTTAATTGCGAGGATATCAT
DNA 2: ATGATATCCTCGCAATTAAGCTAGTCTTAA
B22: the binding result is on record as “binds”.

B23: pMdERDL6-7-3-HB (dsDNA)
DNA 1: CTTCATATCTTAATCATTCATCATGTATCG
DNA 2: CGATACATGATGAATGATTAAGATATGAAG
In the case of B23, the binding result is “binds”.

B24: pMdPRX52-5-HB (dsDNA)
DNA 1: AATTAAGCTAAATCATTAACAATTTTCATT
DNA 2: AATGAAAATTGTTAATGATTTAGCTTAATT
As for B24, the binding result is given as “binds”.

B25: pMdPRX52-2-HB (dsDNA)
DNA 1: TATTAAATCAGAATTATTAAGAGAAAATAA
DNA 2: TTATTTTCTCTTAATAATTCTGATTTAATA
Regarding B25, the binding result is “binds”.

B26: pMdPRX53-1-HB (dsDNA)
DNA 1: AATAGACCTACTAATTGGCTCACATATGCA
DNA 2: TGCATATGTGAGCCAATTAGTAGGTCTATT
Turning to B26, the binding result is “binds”.

B27: pMdCBF3-HB-P1 (dsDNA)
DNA 1: AAAAATAAAATGATTAGCCTGGCGCATCTA
DNA 2: TAGATGCGCCAGGCTAATCATTTTATTTTT
Take B27: the binding result was “binds”.

B28: pMdCBF1-HB-P4 (dsDNA)
DNA 1: GAAATTAAGTACTAATTGTTCAGTACCAAG
DNA 2: CTTGGTACTGAACAATTAGTACTTAATTTC
In the case of B28, the binding result is “binds”.

B29: pMdPAP2-1-HB (dsDNA)
DNA 1: GATGTGTGTTGTAATTAGTTACACGATTCT
DNA 2: AGAATCGTGTAACTAATTACAACACACATC
In the case of B29, the binding result is reported as “no binding”.

B30: pMdERD5-1-HB (dsDNA)
DNA 1: GAACTGCCTATATAATTAACAAGCTTCAGG
DNA 2: CCTGAAGCTTGTTAATTATATAGGCAGTTC
For B30, the binding result was “binds”.
